pKd: −log10 of the molar value. Where “and” joins values, the source holds several entries; their conditions need not be identical. Equal entries are not always repeated.
How the values were obtained:
[1] = target: TRAIL-R1-Fc (human TRAIL-R1 ectodomain Fc fusion) (human) (UniProt O00220); test: SPR, steady-state analysis (KDeq); TRAIL-R1-Fc captured, UL141 analyte
[2] = target: TRAIL-R2-Fc (human TRAIL-R2 aa 58-184, thrombin site, human IgG1 Fc), wild type (human) (UniProt O14763); test: SPR kinetic fit, 1:1 Langmuir; TRAIL-R2-Fc captured, UL141 analyte
[3] = target: CD155-Fc (CD155 / poliovirus receptor Fc fusion) (UniProt P15151); test: SPR kinetic fit, 1:1 Langmuir; CD155-Fc captured, UL141 analyte
[4] = target: CD155-Fc (CD155 / poliovirus receptor Fc fusion) (UniProt P15151); test: SPR, KDave
[5] = target: TRAIL-R2-Fc (human TRAIL-R2 aa 58-184, thrombin site, human IgG1 Fc), wild type (human) (UniProt O14763); test: SPR, KDave
[6] = target: TRAIL-R1-Fc (human TRAIL-R1 ectodomain Fc fusion) (human) (UniProt O00220); test: SPR kinetic fit, 1:1 Langmuir; TRAIL-R1-Fc captured, UL141 analyte
[7] = target: TRAIL-R1-Fc (human TRAIL-R1 ectodomain Fc fusion) (human) (UniProt O00220); test: SPR, average of KDeq and kinetic KD (KDave)
[8] = target: TRAIL-R2-Fc (human TRAIL-R2 aa 58-184, thrombin site, human IgG1 Fc), wild type (human) (UniProt O14763); test: SPR, WT TRAIL-R2-Fc captured, UL141 as analyte
[9] = target: TRAIL-R2-Fc V167A (human) (UniProt O14763); test: SPR, mutant TRAIL-R2-Fc captured, UL141 as analyte
[10] = target: TRAIL-R2-Fc F112A (human) (UniProt O14763); test: SPR, mutant TRAIL-R2-Fc captured, UL141 as analyte
[11] = target: TRAIL-R2-Fc D148A (human) (UniProt O14763); test: SPR, mutant TRAIL-R2-Fc captured, UL141 as analyte
[12] = target: TRAIL-R2-Fc L110A/L114A (human) (UniProt O14763); test: SPR, mutant TRAIL-R2-Fc captured, UL141 as analyte
[13] = target: TRAIL-R2-Fc P150A (human) (UniProt O14763); test: SPR, mutant TRAIL-R2-Fc captured, UL141 as analyte
[14] = target: TRAIL-R2-Fc E78A/D109A (human) (UniProt O14763); test: SPR, mutant TRAIL-R2-Fc captured, UL141 as analyte
[15] = target: TRAIL-R2-Fc M152A (human) (UniProt O14763); test: SPR, mutant TRAIL-R2-Fc captured, UL141 as analyte
[16] = target: TRAIL-R2-Fc M152A/R154A/K155A (human) (UniProt O14763); test: SPR, mutant TRAIL-R2-Fc captured, UL141 as analyte
[17] = target: TRAIL-R2-Fc K155A (human) (UniProt O14763); test: SPR, mutant TRAIL-R2-Fc captured, UL141 as analyte
[18] = target: TRAIL-R2-Fc R154A (human) (UniProt O14763); test: SPR, mutant TRAIL-R2-Fc captured, UL141 as analyte
Chain of TRAIL-R2-Fc R154A (human) (O14763 other isoform, or with tags, fused parts or gaps R154A R154A limits assumed): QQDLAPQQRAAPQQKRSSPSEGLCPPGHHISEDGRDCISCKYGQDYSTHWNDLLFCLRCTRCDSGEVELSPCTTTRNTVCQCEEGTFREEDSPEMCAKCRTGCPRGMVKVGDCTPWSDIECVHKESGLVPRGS

Chain of TRAIL-R2-Fc M152A (human) (O14763 other isoform, or with tags, fused parts or gaps M152A M152A limits assumed): as the sequence (O14763 other isoform, or with tags, fused parts or gaps R154A R154A limits assumed) above, with M95A, A97R counted along it
Chain of UL141 ectodomain of human cytomegalovirus (HCMV FIX strain), C-terminal poly-histidine tag (ligand) (Q6RJQ3 30-279, tags left off): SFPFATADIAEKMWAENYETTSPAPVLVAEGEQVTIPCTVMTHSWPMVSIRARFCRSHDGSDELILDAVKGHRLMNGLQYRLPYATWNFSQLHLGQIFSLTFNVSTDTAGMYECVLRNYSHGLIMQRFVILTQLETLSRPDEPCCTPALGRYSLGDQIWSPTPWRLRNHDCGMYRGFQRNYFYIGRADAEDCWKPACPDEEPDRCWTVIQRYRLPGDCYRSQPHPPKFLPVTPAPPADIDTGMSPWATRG
Chain of TRAIL-R2-Fc L110A/L114A (human) (O14763 other isoform, or with tags, fused parts or gaps L110A L114A L110A L114A limits assumed): as the sequence (O14763 other isoform, or with tags, fused parts or gaps R154A R154A limits assumed) above, with L53A, L57A, A97R counted along it
Chain of TRAIL-R2-Fc E78A/D109A (human) (O14763 other isoform, or with tags, fused parts or gaps E78A D109A E78A D109A limits assumed): as the sequence (O14763 other isoform, or with tags, fused parts or gaps R154A R154A limits assumed) above, with E21A, D52A, A97R counted along it
Chain of TRAIL-R2-Fc K155A (human) (O14763 other isoform, or with tags, fused parts or gaps K155A K155A limits assumed): as the sequence (O14763 other isoform, or with tags, fused parts or gaps R154A R154A limits assumed) above, with A97R, K98A counted along it
Chain of TRAIL-R2-Fc (human TRAIL-R2 aa 58-184, thrombin site, human IgG1 Fc), wild type (human) (O14763 other isoform, or with tags, fused parts or gaps limits assumed): as the sequence (O14763 other isoform, or with tags, fused parts or gaps R154A R154A limits assumed) above, with A97R counted along it
Chain of TRAIL-R2-Fc F112A (human) (O14763 other isoform, or with tags, fused parts or gaps F112A F112A limits assumed): as the sequence (O14763 other isoform, or with tags, fused parts or gaps R154A R154A limits assumed) above, with F55A, A97R counted along it
Chain of CD155-Fc (CD155 / poliovirus receptor Fc fusion) (P15151 21-343): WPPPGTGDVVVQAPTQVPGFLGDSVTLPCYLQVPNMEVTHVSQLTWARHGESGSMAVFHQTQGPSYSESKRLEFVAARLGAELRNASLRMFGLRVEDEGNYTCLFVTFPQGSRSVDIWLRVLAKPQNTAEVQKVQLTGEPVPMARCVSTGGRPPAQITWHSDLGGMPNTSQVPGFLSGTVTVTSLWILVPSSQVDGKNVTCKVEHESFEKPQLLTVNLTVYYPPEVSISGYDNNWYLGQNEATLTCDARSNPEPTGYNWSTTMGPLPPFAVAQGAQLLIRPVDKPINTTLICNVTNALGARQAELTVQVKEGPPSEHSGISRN
Chain of TRAIL-R2-Fc M152A/R154A/K155A (human) (O14763 other isoform, or with tags, fused parts or gaps M152A R154A K155A M152A R154A K155A limits assumed): as the sequence (O14763 other isoform, or with tags, fused parts or gaps R154A R154A limits assumed) above, with M95A, K98A counted along it
Chain of TRAIL-R2-Fc V167A (human) (O14763 other isoform, or with tags, fused parts or gaps V167A V167A limits assumed): as the sequence (O14763 other isoform, or with tags, fused parts or gaps R154A R154A limits assumed) above, with A97R, V110A counted along it
Chain of TRAIL-R1-Fc (human TRAIL-R1 ectodomain Fc fusion) (human) (O00220 24-239): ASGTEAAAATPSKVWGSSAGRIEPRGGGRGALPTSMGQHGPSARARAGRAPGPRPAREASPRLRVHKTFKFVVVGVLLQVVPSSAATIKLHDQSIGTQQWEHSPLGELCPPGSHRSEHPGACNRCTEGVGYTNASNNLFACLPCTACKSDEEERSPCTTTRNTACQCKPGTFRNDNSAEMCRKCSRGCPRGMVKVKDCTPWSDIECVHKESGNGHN
Chain of TRAIL-R2-Fc P150A (human) (O14763 other isoform, or with tags, fused parts or gaps P150A P150A limits assumed): as the sequence (O14763 other isoform, or with tags, fused parts or gaps R154A R154A limits assumed) above, with P93A, A97R counted along it
Chain of TRAIL-R2-Fc D148A (human) (O14763 other isoform, or with tags, fused parts or gaps D148A D148A limits assumed): as the sequence (O14763 other isoform, or with tags, fused parts or gaps R154A R154A limits assumed) above, with D91A, A97R counted along it

Work on “UL141 ectodomain of human cytomegalovirus (HCMV FIX strain), C-terminal poly-histidine tag (ligand)” yielded a pKd [1] of 8.64, a pKd [2] of 8.22 and a koff [2] of 7.21e-05 s⁻¹. For the same substance, the kon [2] was 12100 M⁻¹ s⁻¹, the pKd [3] was 8.71 and the koff [3] was 0.000346 s⁻¹. It also gave a kon [3] of 176000 M⁻¹ s⁻¹, a pKd [4] of 8.70 and a pKd [5] of 8.22. The pKd [6] was 5.63, the koff [6] was 0.014 s⁻¹ and the kon [6] was 6020 M⁻¹ s⁻¹. The pKd [7] was 5.64, the pKd [8] was 8.22 and 8.23 and the koff [8] was 7.21e-05 s⁻¹. The kon [8] was 12100 M⁻¹ s⁻¹, the pKd [9] was 7.81 and the fold lower binding than wild type [9] was 2.5 fold. For the same substance, the koff [9] was 0.00048 s⁻¹, the kon [9] was 31000 M⁻¹ s⁻¹ and the pKd [10] was 6.20. For the same substance, the fold lower binding than wild type [10] was 100 fold, the koff [10] was 0.00566 s⁻¹ and the kon [10] was 8980 M⁻¹ s⁻¹. For the same substance, the pKd [11] was 7.26, the fold lower binding than wild type [11] was 10 fold and the koff [11] was 0.0013 s⁻¹. It also gave a kon [11] of 23500 M⁻¹ s⁻¹, a pKd [12] of 7.37 and a fold decrease in binding affinity versus wild type [12] of 7 fold. It also gave a fold lower binding than wild type [12] of 10 fold, a koff [12] of 0.00064 s⁻¹ and a kon [12] of 15000 M⁻¹ s⁻¹. It also gave a pKd [13] of 8.08, a koff [13] of 0.000391 s⁻¹ and a kon [13] of 47000 M⁻¹ s⁻¹. The pKd [14] was 7.22, the fold lower binding than wild type [14] was 10 fold and the koff [14] was 0.00151 s⁻¹. The kon [14] was 25000 M⁻¹ s⁻¹, the pKd [15] was 8.13 and the koff [15] was 0.000382 s⁻¹. It also gave a kon [15] of 51000 M⁻¹ s⁻¹, a pKd [16] of 8.13 and a koff [16] of 0.00027 s⁻¹. It also gave a kon [16] of 36500 M⁻¹ s⁻¹, a pKd [17] of 8.11 and a koff [17] of 0.00038 s⁻¹. It also gave a kon [17] of 49100 M⁻¹ s⁻¹, a pKd [18] of 8.20 and a koff [18] of 0.000243 s⁻¹. The kon [18] was 38800 M⁻¹ s⁻¹.
